This note sets out measurements from article PMC10240212 (EMBO Reports, 2023).

The series “mass photometry” deals with the molecule itself. Briefly: mass photometry.
The series “SEC” concerns the molecule itself. Kind of series: SEC. A general note: Size exclusion chromatography separates by hydrodynamic size, large species first.

B1: Teneurin‐m superfold (Ten‐m^SF), residues 779–2731 (domain or fragment)
chain: LNCGDSKDNDKDGLVDCEDPECCASHVCKTSQLCVSAPKPIDVLLRKQPPAITASFFERMKFLIDESSLQNYAKLETFNESRSAVIRGRVVTSLGMGLVGVRVSTTTLLEGFTLTRDDGWFDLMVNGGGAVTLQFGRAPFRPQSRIVQVPWNEVVIIDLVVMSMSEEKGLAVTTTHTCFAHDYDLMKPVVLASWKHGFQGACPDRSAILAESQVIQESLQIPGTGLNLVYHSSRAAGYLSTIKLQLTPDVIPTSLHLIHLRITIEGILFERIFEADPGIKFTYAWNRLNIYRQRVYGVTTAVVKVGYQYTDCTDIVWDIQTTKLSGHDMSISEVGGWNLDIHHRYNFHEGILQKGDGSNIYLRNKPRIILTTMGDGHQRPLECPDCDGQATKQRLLAPVALAAAPDGSLFVGDFNYIRRIMTDGSIRTVVKLNATRVSYRYHMALSPLDGTLYVSDPESHQIIRVRDTNDYSQPELNWEAVVGSGERCLPGDEAHCGDGALAKDAKLAYPKGIAISSDNILYFADGTNIRMVDRDGIVSTLIGNHMHKSHWKPIPCEGTLKLEEMHLRWPTELAVSPMDNTLHIIDDHMILRMTPDGRVRVISGRPLHCATASTAYDTDLATHATLVMPQSIAFGPLGELYVAESDSQRINRVRVIGTDGRIAPFAGAESKCNCLERGCDCFEAEHYLATSAKFNTIAALAVTPDSHVHIADQANYRIRSVMSSIPEASPSREYEIYAPDMQEIYIFNRFGQHVSTRNILTGETTYVFTYNVNTSNGKLSTVTDAAGNKVFLLRDYTSQVNSIENTKGQKCRLRMTRMKMLHELSTPDNYNVTYEYHGPTGLLRTKLDSTGRSYVYNYDEFGRLTSAVTPTGRVIELSFDLSVKGAQVKVSENAQKEMSLLIQGATVIVRNGAAESRTTVDMDGSTTSITPWGHNLQMEVAPYTILAEQSPLLGESYPVPAKQRTEIAGDLANRFEWRYFVRRQQPLQAGKQSKGPPRPVTEVGRKLRVNGDNVLTLEYDRETQSVVVMVDDKQELLNVTYDRTSRPISFRPQSGDYADVDLEYDRFGRLVSWKWGVLQEAYSFDRNGRLNEIKYGDGSTMVYAFKDMFGSLPLKVTTPRRSDYLLQYDDAGALQSLTTPRGHIHAFSLQTSLGFFKYQYYSPINRHPFEILYNDEGQILAKIHPHQSGKVAFVHDTAGRLETILAGLSSTHYTYQDTTSLVKSVEVQEPGFELRREFKYHAGILKDEKLRFGSKNSLASARYKYAYDGNARLSGIEMAIDDKELPTTRYKYSQNLGQLEVVQDLKITRNAFNRTVIQDSAKQFFAIVDYDQHGRVKSVLMNVKNIDVFRLELDYDLRNRIKSQKTTFGRSTAFDKINYNADGHVVEVLGTNNWKYLFDENGNTVGVVDQGEKFNLGYDIGDRVIKVGDVEFNNYDARGFVVKRGEQKYRYNNRGQLIHSFERERFQSWYYYDDRSRLVAWHDNKGNTTQYYYANPRTPHLVTHVHFPKISRTMKLFYDDRDMLIALEHEDQRYYVATDQNGSPLAFFDQNGSIVKEMKRTPFGRIIKDTKPEFFVPIDFHGGLIDPHTKLVYTEQRQYDPHVGQWMTPLWETLATEMSHPTDVFIYRYHNNDPINPNKPQNYMIDLDSWLQLFGYDLNNMQSSRYTKLAQYTPQASIKSNTLAPDFGVISGLECIVEKTSEKFSDFDFVPKPLLKMEPKMRNLLPRVSYRRGVFGEGVLLSRIGGRALVSVVDGSNSVVQDVVSSVFNNSYFLDLHFSIHDQDVFYFVKDNVLKLRDDNEELRRLGGMFNISTHEISDHGGSAAKELRLHGPDAVVIIKYGVDPEQERHRILKHAHKRAVERAWELEKQLVAAGFQGRGDWTEEEKEELVQHGDVDGWNGIDIHSIHKYPQLADDPGNVAFQRDAKRKRRKTGSSHRSASNRRQLKFGELSA
By stoichiometry N is commonly meant a count of units in the complex or per binding partner. Take B1: the “stoichiometry N” value in the series “mass photometry” is around 4; in the series “SEC”, 2.
